The results in this text go back to patent US8202695 (TUFTS UNIVERSITY, dated 2012).

This data set concerns the molecule itself. The data set can be described thus: X-ray crystals of CodY grown with GTP, with isoleucine and valine, or without effectors.

B1: Bacillus subtilis CodY protein (other, UniProt P39779 2-259, looked up)
chain: ALLQKTRIINSMLQAAAGKPVNFKEMAETLRDVIDSNIFVVSRRGKLLGYSINQQIENDRMKKMLEDRQFPEEYTKNLFNVPETSSNLDINSEYTAFPVENRDLFQAGLTTIVPIIGGGERLGTLILSRLQDQFNDDDLILAEYGATVVGMEILREKAEEIEEEARSKAVVQMAISSLSYSELEAIEHIFEELDGNEGLLVASKIADRVGITRSVIVNALRKLESAGVIESRSLGMKGTYIKVLNNKFLIELENLKSH
notes: For crystallization, B. subtilis CodY was overproduced in E. coli with a C-terminal or an N-terminal 6xHis tag; also called purified CodY protein
For the protein B1, the binding result is “binds”.
